Results on one molecule are retold here after article PMC7791120 (2021).

The experiment deals with T1, purified TRIB2 protein (ab186094, Abcam) (Homo sapiens (Human), UniProt Q92519).
T1 chain: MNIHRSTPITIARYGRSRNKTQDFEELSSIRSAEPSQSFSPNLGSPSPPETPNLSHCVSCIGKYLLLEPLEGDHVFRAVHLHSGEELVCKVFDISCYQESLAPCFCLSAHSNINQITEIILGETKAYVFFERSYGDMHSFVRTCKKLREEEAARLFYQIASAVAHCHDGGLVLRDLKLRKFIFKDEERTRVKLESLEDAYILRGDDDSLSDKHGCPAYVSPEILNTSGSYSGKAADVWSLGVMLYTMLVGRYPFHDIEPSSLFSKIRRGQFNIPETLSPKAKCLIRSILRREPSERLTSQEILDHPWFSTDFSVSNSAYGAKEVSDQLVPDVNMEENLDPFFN
The experiment in a line: in vitro reciprocal co-IP.

B1: purified PCBP2 protein (H00005094-P01, Abnova) (protein)
chain: MDTGVIEGGLNVTLTIRLLMHGKEVGSIIGKKGESVKKMREESGARINISEGNCPERIITLAGPTNAIFKAFAMIIDKLEEDISSSMTNSTAASRPPVTLRLVVPASQCGSLIGKGGCKIKEIRESTGAQVQVAGDMLPNSTERAITIAGIPQSIIECVKQICVVMLETLSQSPPKGVTIPYRPKPSSSPVIFAGGQDRYSTGSDSASFPHTTPSMCLNPDLEGPPLEAYTIQGQYAIPQPDLTKLHQLAMQQSHFPMTHGNTGFSGIESSSPEVKGYWGLDASAQTTSHELTIPNDLIGCIIGRQGAKINEIRQMSGAQIKIANPVEGSTDRQVTITGSAASISLAQYLINVRLSSETGGMGSS
Turning to B1, the binding result is “binds”.
